Experimental data reported in patent US20110275559A1, “Long-Acting Y2 and/or Y4 Receptor Agonists” (Novo Nordisk A/S, priority 2008, published 2011).
*1 amine or outer side, *2 acyl side, *3 side chain or, on linkers, in order; H or OH if unused. Where a SMILES comes first, the peptide text is derived from it. Where no end group is shown, it is not given here. Side-chain parts run from the residue outwards. The star is where a group is joined. C20 diacid = O=C(O)CCCCCCCCCCCCCCCCCCC(=O)*; C18 diacid = O=C(O)CCCCCCCCCCCCCCCCC(=O)*; γGlu = O=C(O)[C@H](CCC(=O)[*:2])N[*:1]; Trx = NC[C@H]1CC[C@H](C(=O)O)CC1; AEEA = NCCOCCOCC(=O)O

T1: Y2 receptor (UniProt P49146 1-381, limits assumed)
T1 sequence (looked up): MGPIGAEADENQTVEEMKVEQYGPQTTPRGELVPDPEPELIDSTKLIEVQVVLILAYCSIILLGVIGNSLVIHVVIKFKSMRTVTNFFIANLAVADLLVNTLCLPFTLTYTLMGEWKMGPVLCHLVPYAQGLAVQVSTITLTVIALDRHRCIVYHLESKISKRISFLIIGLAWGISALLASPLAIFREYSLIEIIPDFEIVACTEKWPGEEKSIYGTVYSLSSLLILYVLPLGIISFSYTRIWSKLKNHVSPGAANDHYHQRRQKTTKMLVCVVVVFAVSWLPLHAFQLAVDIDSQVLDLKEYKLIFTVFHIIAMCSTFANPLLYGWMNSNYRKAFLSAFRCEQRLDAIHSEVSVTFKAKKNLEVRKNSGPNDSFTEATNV


Experiments:
in vivo = conditions: Göttingen, minipig, iv, 16 nmol/kg
Experimental: (§1) The mini-pigs had two central venous catheters inserted which were used for intra venous (i.v.) dosing and bloodsampling. Compound was dissolved in 50 mM K2HPO4, 0.05% tween 80, pH=8.0 to a concentration of 180 nmol/ml. The pigs were dosed with 6 nmol compound/kg body weight. […] The blood samples were collected into test tubes containing EDTA buffer for stabilization and kept on ice for max. 20 minutes before centrifugation. The centrifugation procedure to separate plasma was; 4° C., 3000 rpm for 10 minutes. Plasma were collected and immediately transferred to Micronic tubes stored at −20° C. until assayed.
An additional mini-pig PK assay was used for measuring PK of the compounds of the invention. […] The animals had two central venous catheters inserted which were used for intra venous (i.v.) dosing and blood sampling. Compounds were dissolved in 10 mM Na2HPO4, 150 mM NaCl, 0.01% tween 80, pH=4.0 to concentrations in the range of 40 nmol/ml to 200 nmol/ml. The mini-pigs were dosed i.v. with 10 nmol compound/kg body weight, occasionally other doses such as 4 nmol/kg, 30 nmol/kg or 50 nmol/kg were administered. Each compound was dosed to 3 or 4 mini-pigs, and two compounds may be given simultaneously to the same animal. Blood were sampled pre-dose and 12 times during the first 10 hours post-dose. Blood were furthermore sampled once daily until 13 days post dosing. The blood samples were collected into test tubes containing EDTA buffer, trasylol and Val-Pyr for stabilization and kept on ice for max. 20 minutes. Samples were centrifuged at 4° C., 2000G for 10 minutes to separate plasma. Plasma were collected and immediately transferred to Micronic tubes stored at −20° C. until assayed.
Plasma samples were analysed by LC-MS on an LTQ-Orbitrap (ThermoFisher Scientific, Bremen) to which Accela HPLC pumps and an autosampler were connected (both from ThermoFisher). […] HPLC was performed on a Jupiter Proteo column (4μ) 90A (50×2.0 mm ID). […] The flow rate was 0.3 ml/min. For analysis of plasma samples, 30 μl plasma was precipitated with 90 μl ethanol. […] The heptane phase was removed after 5 min and the remaining solution was analysed by LC-MS as described above. For construction of plasma standards, compound was spiked to plasma (minipig) at the following concentrations: 1 nM, 2 nM, 5 nM, 10 nM, 20 nM, 50 nM, 100 nM, 200 nM. The plasma standards were treated as the samples. The lower limit of quantification was estimated to 2 nM.
Non-compartmental analysis (NCA): Plasma concentration-time profiles were analyzed by non-compartmental pharmacokinetics analysis (NCA) using WinNonlin Professional 5.0 (Pharsight Inc., Mountain View, Calif., USA). NCA was performed using the individual plasma concentration-time profiles from each animal.
For determination of plasma concentration of the PYY and PP peptide derivative or analogues thereof the following Methods 1-4 were used.
as §1, with “bloodsampling. The compound” for “bloodsampling. Compound”, “to an appropriate” for “to a”, “concentration (e.g. 25-500 nmol/mL).” for “concentration of 180 nmol/ml.”, “dosed intravenously (i.v.) or subcutaneously (s.c.)” for “dosed”, “with between 1 and 30” for “with 6”, “buffer (with Aprotinin 15000 KIE/mL and Val-Pyr 0.30 mM)” for “buffer”
An additional mini-pig PK assay was used for measuring PK of the compounds of the invention. […] The animals had two central venous catheters inserted which were used for intra venous (i.v.) dosing and blood sampling.

Y2 receptor = target: T1, Y2 receptor; experiment: cell-based or functional assay
Y4 receptor = Y4 receptor (UniProt P50391 1-375, limits assumed); experiment: cell-based or functional assay
Sequence of Y4 receptor (P50391 whole entry): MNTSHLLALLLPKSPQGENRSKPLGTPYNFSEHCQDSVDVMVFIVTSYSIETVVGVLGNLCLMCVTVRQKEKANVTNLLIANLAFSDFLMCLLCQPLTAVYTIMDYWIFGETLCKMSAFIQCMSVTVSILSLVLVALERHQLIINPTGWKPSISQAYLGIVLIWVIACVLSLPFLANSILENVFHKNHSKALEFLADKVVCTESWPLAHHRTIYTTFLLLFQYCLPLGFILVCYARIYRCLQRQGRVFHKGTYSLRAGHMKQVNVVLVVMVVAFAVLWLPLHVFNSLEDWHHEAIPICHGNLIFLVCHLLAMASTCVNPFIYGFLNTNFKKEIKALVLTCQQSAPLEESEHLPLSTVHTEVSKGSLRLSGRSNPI

Molecule	half-life (in vivo)	Y2 cAMP EC50 (Y2 receptor)	Y4 cAMP EC50 (Y4 receptor)
CC[C@H](C)[C@H](NC(=O)[C@H](Cc1ccc(O)cc1)NC(=O)[C@H](CCCNC(=N)N)NC(=O)[C@H](CCCNC(=N)N)NC(=O)[C@H](CC(C)C)NC(=O)[C@H](CC(=O)O)NC(=O)[C@H](C)NC(=O)[C@H](C)NC(=O)[C@H](Cc1ccc(O)cc1)NC(=O)[C@H](CCC(N)=O)NC(=O)[C@H](C)NC(=O)[C@H](CC(C)C)NC(=O)[C@H](CCC(N)=O)NC(=O)[C@H](CCC(=O)O)NC(=O)[C@@H]1CCCN1C(=O)[C@H](CCCCNC(=O)COCCOCCNC(=O)COCCOCCNC(=O)CC[C@H](NC(=O)[C@H]1CC[C@H](CNC(=O)CCCCCCCCCCCCCCCCCCC(=O)O)CC1)C(=O)O)NC(=O)[C@H](C)NC(=O)[C@H](CC(N)=O)NC(=O)[C@H](CC(=O)O)NC(=O)CNC(=O)[C@@H]1CCCN1C(=O)[C@H](Cc1ccc(O)cc1)NC(=O)[C@@H](NC(=O)[C@@H]1CCCN1C(=O)[C@H](CCC(=O)O)NC(=O)[C@H](CC(C)C)NC(=O)[C@@H]1CCCN1C(=O)[C@H](C)N)C(C)C)C(=O)N[C@@H](CC(N)=O)C(=O)N[C@@H](CC(C)C)C(=O)N[C@@H](CC(C)C)C(=O)N[C@H](C(=O)N[C@@H](CCCNC(=N)N)C(=O)N[C@@H](CCC(N)=O)C(=O)N[C@@H](CCCNC(=N)N)C(=O)N[C@@H](Cc1ccc(O)cc1)C(=O)O)[C@@H](C)O [SEQ ID NO: 74, N-epsilon13-[2-(2-{2-[2-(2-{2-[(S)-4-Carboxy-4-({trans-4-[(19-carboxynonadecanoylamino)methyl]cyclohexanecarbonyl}amino)butyrylamino]-ethoxy}ethoxy)acetylamino]ethoxy}ethoxy)acetyl][Leu17,Lys13,Gln34]hPP1-36 acid] (H-APLEPVYPGDNAK([AEEA-AEEA-γGlu-Trx-C20 diacid])PEQLAQYAADLRRYINLLTRQRY-OH; N-terminus assumed)	8 h		
APLEPVYPGDNAK([AEEA-AEEA-γGlu-Trx-C20 diacid])PEQLAQYAADLRRYINVLTRQRY (ends and bridges not checked)		130 nM	7 nM
PLEPVYPGK([AEEA-AEEA-γGlu-Trx-C20 diacid])NATPEQLAQYAADLRRYINLLTRQRY (ends and bridges not checked)		25 nM	
PLEPVYPGDNATPEQLAQYAADLK([AEEA-AEEA-γGlu-Trx-C20 diacid])RYINLLTRPRY (ends and bridges not checked)		> 1000 nM	> 1000 nM
APLEPVYPGDNAK([AEEA-AEEA-γGlu-Trx-C20 diacid])PEQLAQYAADLRRYINLLTRQRY (ends and bridges not checked)		54 nM	18 nM
APLEPVYPGDNAK([AEEA-AEEA-γGlu-Trx-C20 diacid])PEQLAQYAADLRRYVNLLTRQRY (ends and bridges not checked)		63 nM	65 nM
APLEPVYPGDNAK([AEEA-AEEA-γGlu-C18 diacid])PEQMAQYAADLRRYINMLTRPRY (ends and bridges not checked) [N-epsilon13-[2-(2-{2-[2-(2-{2-[(S)-4-Carboxy-4-(17-carboxyheptadecanoylamino)butyrylamino]ethoxy}ethoxy)acetylamino]-ethoxy}ethoxy)acetyl][Lys13]hPP(1-36) (as …, listing 1 of 2 here]			2 nM
APLEPVYPGDNAK([AEEA-AEEA-γGlu-C18 diacid])PEQMAQYAADLRRYINMLTRPRY (ends and bridges not checked) [N-epsilon13-[2-(2-{2-[2-(2-{2-[(S)-4-Carboxy-4-(17-carboxyheptadecanoylamino)butyrylamino]ethoxy}ethoxy)acetylamino]-ethoxy}ethoxy)acetyl][Lys13]hPP(1-36) (as …, listing 2 of 2 here]			4 nM
PLEPVYPGDNATPEQLAQYAADLRRYINLLTRPRY (not fully specified (N-terminus); printed as N-alfa-[2-(2-{2-[2-(2-{2-[(S)-4-Carboxy-4-({trans-4-[(19-carboxynonadecanoylamino)methyl]cyclohexanecarbonyl}amino)butyrylamino]-ethoxy}ethoxy)acetylamino]ethoxy}ethoxy)acetyl][Leu17,Leu30]hPP2-36; ends and bridges not checked)		> 1000 nM	
PLEPVYPGDNATPEQLAQYAADLRRYINLLTRPRY (ends and bridges not checked) [[Leu17,Leu30]hPP2-36]		> 1000 nM	0.9 nM
APLEPVYPGDNAK([AEEA-AEEA-γGlu-Trx-C20 diacid])PEQLAQYAADLRRYIQLLTRPRY (ends and bridges not checked)		> 1000 nM	130 nM
APLEPVYPGDNATPEQLAQYAADLRRYINLLTRPRY (not fully specified (N-terminus); printed as N-alfa-[2-(2-{2-[2-(2-{2-[(S)-4-Carboxy-4-({trans-4-[(19-carboxynonadecanoylamino)methyl]cyclohexanecarbonyl}amino)butyrylamino]-ethoxy}ethoxy)acetylamino]ethoxy}ethoxy)acetyl][Leu17,Leu30]hPP1-36; ends and bridges not checked)		> 1000 nM	3.2 nM
PLEPVYPGDNATPEQLAQYAADLRRYINLLTRPK([AEEA-AEEA-γGlu-Trx-C20 diacid])Y (ends and bridges not checked)		> 1000 nM	> 1000 nM
APLEPVYPGNDAK([AEEA-AEEA-γGlu-Trx-C20 diacid])PEQLAQYAADLRRYINLVTRPRY (ends and bridges not checked)		92 nM	18 nM
{C18 diacid-γGlu-AEEA-AEEA}-PLEPVYPGDNATPEQLAQYAADLRRYINLLTRPRY (ends and bridges not checked)		> 1000 nM	
PLEPVYPGDK([AEEA-AEEA-γGlu-Trx-C20 diacid])ATPEQLAQYAADLRRYINLLTRPRY (ends and bridges not checked)		> 1000 nM	2 nM
APLEPVYPGDNAK([AEEA-AEEA-γGlu-Trx-C20 diacid])PEQLAQYAADLRRYLNVLTRQRY (ends and bridges not checked)		73 nM	7 nM
